According to the supplement of paper PMC9170038:

Tested on: MS2 coat protein
Test: apparent KD of MS2 coat protein; higher = weaker reporter binding
Conditions: Eterna round: R107
Method in brief: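 Designed RNA switches were transcribed on-chip from Illumina sequencing clusters. They were then titrated with SNAP-549-labelled MS2 coat protein (twofold steps, 0.7 or 1.5 nM to 3 µM; 0.8–1.5 h to 10–20 min per step) in 100 mM Tris-HCl pH 7.5, 80 mM KCl, 4 mM MgCl2, without or with constant ligand. Apparent KD is the per-design median of normalised cluster binding-curve fits.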

[1] = input ligand: theophylline 20 uM
[2] = input ligand: theophylline 2 mM
[3] = input ligand: tryptophan 2.4 mM

Sequence	apparent KD of MS2 coat protein (input ligand: arginine 13.2 mM) [nM]	apparent KD of MS2 coat protein (input ligand: none) [nM]	apparent KD of MS2 coat protein [1] [nM]	apparent KD of MS2 coat protein [2] [nM]	apparent KD of MS2 coat protein [3] [nM]
CGAAUGAAGCAAGAUACCAGUGUAGAUUUAGACAUGAGGAUCACCCAUGUGAGGCAUGAGCACCCUUGGCAGCUUAAGCAGAAAA [theeternabot_sameState_MS2_Theo_B_47]	115	28.7	25.7	60.5	29.4
AUUGACAUGAGGAUCACCCAUGUAUCCGAAGGAGCGGCAGAUGUGCCAGGUAGGUCGCGGGUGAAAGAGACAUCGUAGGGUGUCG [Same State - Arginine A / B [only NuPack]]	73.9	256	207	469	229
GCGAUGGAGCGAAGGAGCGGCUGUGACUACAUGAGGAUCACCCAUGUACGAUCGUAAGGUAGCCAGGUAGGUCGCGCUCCAUCGC [SSAB NP+V+V2 #17]	18.7	29.3	41.8	41.8	26.2
CGAUUUAAGACGGCCGCCACUAUUAAGUAACAAAAUAAACAUGAGGAUCACCCAUGUACAUGGGAUAGGACCGGGUCCAAUAUCG [A2]	34.8	–	79.7	84.4	–
UAUAUAUGGAUGGAUACCAGCAGAGAAAACGUUUAUCCUAACAUGAGGAUCACCCAUGUAUGCCCUUGGCAGCUGUUUAUAUAUA [8.J]	21	–	33.9	–	24.3
AGCCGGAUUACGGCCGCCACUGUAGACGUGACGAAAGUCGCGUCAACAUGAGGAUCACCCAUGUACAGGACCGGGUGGUCCGGCG [Omei Trp B SS A v1]	15	13.7	22.2	17.8	6.02
GGGACAUGAGGAUCACCCAUGUACCGGUCCCGAGGACCGGUACGGCCGCCACUCGAUGACCUCAUAGUCUACUUGAGCAGUAGAC [Geeson]	37.7	22.1	143	38.6	100
UGUAUGUGAUUUGAUACCAGACCAACUGGUAAAACAUGAGGAUCACCCAUGUAAACUUGGGUCCCUUGGCAGCAAAUCGCAUACU [SSTheo B #22]	67.8	–	45.6	–	82.7
GUACGAGUUGAAUGUGAGACUGGCGUGGAAGGAGCGCACGGAGGUGCAGGUAGGUCGCCACAUGAGGAUCACCCAUGUCGGCUAG [XARG-A 23]	22.1	23.2	27.3	29	25.9
UAGCAUAGUACGGCCGCCACUCCUGGUUCCCGGCCGUGUGUAAGACAUGAGGAUCACCCAUGUAGGAGGACCGGGUAUCGCUUGC [theeternabot_sameState_MS2_Trp_B_22]	12.5	–	20.2	15.6	–
AACAUGAGGGCGGCCGCCACUCCAUGAACAUGAGGAUCACCCAUGUUGAGGAUCACCCAUGUUGUGAGGACCGGGCCACAUGAGG [Exclusion Tryptophan B 3]	31.7	38	66.1	59.8	89.6
UGUCGAAACUGAAGGAGCGAGAUGACAACAUUGGGUCUAACAUGAGGAUCACCCAUGUAAUCUCAGGUAGGUCGCAGUGACAAAA [Exclusion Arginine B GF 15]	64.5	94.7	123	133	121
UAAUAAGUACCGGUCCUCAGAUCCUCAUGUCGAGGACCGGUACGGCCGCCACUCGAAACAUGAGGAUCACCCAUGUAAUAAUAAU [#06 Exclusion Tryptophan A]	24.5	–	52.6	44.3	–
GCACAAGAUGGAAGGAGCGCUGGUAAAAGUCACAUGAGGAUCACCCAUGUGCUCCUUGCCGAGCAGGUAGGUCGCCAUCUUGUGC [SSAB NP+V+V2 #4]	19.5	27.8	31.8	33.2	29.8
AGUAUUGGAAACAGUACUAGUGAUCCGGUCCGAGGACCGGUACGGCCGCCACUCGAAUUAAAUAAACAUGAGGAUCACCCAUGUA [Ex Tryptophan A 15]	18.1	–	18.7	20.6	–
AGCAGUACAACAGAUACCAGACUUUUCAUGCCUUUAAUUACAUGAGGAUCACCCAUGUUUGUCCCUUGGCAGCUGUUGUACUGCA [JR_ExcTheophyB_Sub011]	29.5	–	62.8	–	39.9
ACCUACACGGAGACGUGUAGGAGUAAUGAUACCAGCAUGGAGACAUGCCCUUGGCAGCGUUACAUGAGGAUCACCCAUGUAGGUU [ETHA #4]	43.3	43.6	59	78.8	43.1
GGCUACAUGAGGAUCACCCAUGUUUCUCGUCGAGGACCGGUACGGCCGCCACUCGUUGUUGGGACUCAGUAUCAGUCGUUAGUUU [theeternabot_sameState_MS2_Trp_A_36]	23.8	–	34.3	40.2	–
AGCGACAUGCGUGAUACCAGCUACAUGAGGAUCACCCAUGUACGUAGGAAACUACUGUGUAGCCCUUGGCAGCAUAGUGCAUGUC [Exclusion - Theophylline B (Freestyle 21)]	14.6	–	20	–	13.5
AGUAUCAGUGGAAGGAGCGUCGCGACUGCCACAUGAGGAUCACCCAUGUCGCCUUGAGCGCGACAGGUAGGUCGCCACGGUAGGC [SS-ArgB2]	29.1	301	213	499	289
ACACAUGAGGAUCAUCCAUGUGCCCAUGAAGGAGCGUGGGAAACCACAGGUAGGUCGCAUGACAUGAGGAUCACCCAUGUUUAUU [#03 Exclusion - Arginine A]	66.6	204	203	366	209
CUCCCGUGGUCGGCCGCCACUGGAGGCCUUGCGCGACAUGAGGAUCACCCAUGUGGGCCCGGCGUCAGGACCGGGAUCGCGUGAG [#1 Same State - Tryptophan B Attempt #11 (HarryS)]	11.5	16.1	20.2	16.2	15.6
UACCUUAACACGGCCGCCACUCUCUAAUAGGAUCAUGGUACCGCACAUGAGGAUCACCCAUGUUUGAGGACCGGGUGUUAUGAAG [theeternabot_sameState_MS2_Trp_B_24]	14.8	–	25	20.2	–
AGAUUCGACACGGCCGCCACUCGUGGAGGAUUACCGAGUGUCGAACAUGAGGAUCACCCAUGUACGAGGACCGGGUGUUGAGUCU [XTryp B #15]	23.5	27.3	32.2	28.5	179
UUUACCGACACAGAUCACUAAAACCUUGAUACCAGUCCCAGUGGCGACCCUUGGCAGCAAUAUACAUGAGGAUCACCCAUGUGCA [theeternabot_exclusion_MS2_Theo_A_1]	13.7	–	–	–	13.8
AGACAUGAGGAUCACCCAUGUAGUAUGGAUACCAGAUGUAGAUUAGUCCCUUGGCAGCUGUGCUGAAGUGAUGCAUUGCUCCUAG [#15 Exclusion-TheophyllineA]	21.9	22.1	33.5	24.2	23.6
UGUUUUGUGGGAAGGAGCGCAUACUUCACAUGAGGAUCACCCAUGUCAAGACGUGAGUCAGUGCAGGUAGGUCGCCUAGUUAAGA [Same State - Arginine B (Freestyle 16)]	52.8	70.4	59	61.9	49.3
UCAUGCAGGUCGGCCGCCACUACACACAUGAGGAUCACCCAUGUAGUUACUGGGUGAAGUGGCAGUAGGACCGGGACCUGCAUAC [Brourdmod09]	89.1	591	604	342	78
AGCCCGGGAGCGGCCGCCACUGGAGGCUUUGCGCGACAUGAGGAUCACCCAUGUGUGCCCGGCGUUAGGACCGGGCUCGCGUGGU [#1 Same State - Tryptophan B Attempt #21 (HarryS)]	27.8	33.4	32.5	55.3	46.9
